Reference: the DeepSol protein solubility set

Test: soluble on expression in E. coli; label from the status in PepcDB or PDB records

| Sequence | soluble on expression in E. coli |
| --- | --- |
| MSKKIRTEAVDYLFDAILSLKDKEECYTFFEDICTINELLSLSQRFEVAKMLREQKTYLEIAEKTGASTATISRVNRSLNYGNDGYDMVFERMEK | not soluble |
| MSKKSQIIETATRLFAEHGFENTPVSLICEEAEVSKGAVFHHFKNKNDILREVFIHITTIIEETDKNDVHLATQEDPLEAAIHEIFDGMSVAKYRKMYQFNFSVMVHPTTRAIVADLIEDRYQQLQTSAEEIFRAVGYSNPVVITKMFIAEIDGIAMNYLLNNDFPLMDIKQEFIKKYCQ | not soluble |
| MSKKTPLNEIAEFDVSDYLRDDEDIAEYLTQVLAEGDSNELLRAIGYIAKARGITQLAKDTGLGRESLYKAFRAGSKPQFETVFKVLHALNINLKAIPKEVVSTRV | not soluble |
| MSKLEAILSQEVEAEIQALLQEAEAKAEAVKREAEEKAKALLQARERALEAQYRAALRRAESAGELLVATARTQARGEVLEEVRRRVREALEALPQKPEWPEVVRKLALEALEALPGAKALVANPEDLPHLEAMARERGVELQAEPALRLGVRAVGAEGKTQVENSLLARMDRAWDAMSSKVAQALWG | soluble |
| MSKLLYLVAVDGGEWGERAADRAIHLAEKTHAKVKLVTVIDWPYIHPMIIEGAAAPLLDKEAEEMTVKAKVITPLVEKYNTLSLNITTELLWGDPAVILKEQVEVTNADMIFVGRQGRSSVVDTLFGSVANKLAHSVSVPIVLVP | not soluble |
| MSKLTAAYNKTRECVVTRSKIMMGYPEARYPTIPKILKKTADFQKLEGSKDRIAFTLSQEPIADKKCTEMIKNVLLEQFQDTDIPANYIAVSMALPNFKIGQNCHDFQPLDWYKNIKGYFTYKKITEQVQAAYFNDEAGNQFLAGVCYYATPAGKWVAKLQTEQTLLRFEFQKAEPFPLNSKSRFDTKAFKKFARYGRYCETEGCRVLVWVGKADGQIVHLNYHPVYCMQWTKGCAECAKDHFEYMWIAPEEPVVQKSKEEDYILKAPEDKDLSDFDQLSDVLNVDAISLH | not soluble |
| MSKPEFIARQGRKPTGWLGHIVARVMARETRPENDRALSFLDLADGDSLIDIGCGHGETLFQADRIVRLSGSVGVDFSEVMLKRARARNRDAVWDTRMAFHCADTAALPFPDKRFGKALSVHTIYFWPNPAAHLAEAFRVLRRGGRFLFCYRSTADRRAVEEFPDTVYRFPSVQEVEEKLKLVGFLGPETTTEDIKGRLTHWSIAEKPLEHHHHHH | soluble |
| MSKQDEVIVVGKFGASYGIRGWLKVVSFTDQPESIFDYKPWLIQVKGEWVEFSVESWKRHKGLVCKLKGLDVREEAQTYTNLEIAVKADALPELSEDEFYWRELFGMEVVTTKGYALGVVDDIFETGSNDVLVVKANLKDAFGKKERLIPFIDEQVIKLIDREAQRIEVDWDPGFLEHHHHHH | soluble |
| MSKRNTQQRRHNIIADLNAQGEVSVDSLAKQFDTSEVTIRKDLAALETSGLLLRRYGGAVALPSEITEAKVDQLSQQKLHIAKKAAMLIRDHNRIIIDSGQTTSALVSELANKKGLVVMTNALSIANEIHALENEPTLLMTGGTWDATSEAFQGQVAEQVLRSYDFDQLFIGADGIDIKRGTTTFNELIGLSRVMAEVAREVIVMVESAKITKKIPNLELNWQQIHTVITDDGLSEEMRIALTEQGVKLIIAKG | not soluble |
| MSKTITWTAALLGSMALAGCSGPKTLYQWEGYQAQVHEYFKGESKEAQAQALEADLEKIRAKNGAVPPGYHAQLGLLYSSIGKDDQMVREFETEKALFPESATYMDFLLNNARGGAR | not soluble |
| MSKTRMEKLKTLKTIAETLNQGHDIKATLDEVLKELLSLTNLQSGWIFLIEEDGSYTLAADAYLPPALSRKEKVLMCEGECYCLTKFNNGGLRKAANIMNCKRIESAENLHCFDTEGITHHATVPLEDGDRRFGLLNVAAAGKTMFDEEELHLLESVAFQIGTAIQRMRLSE | soluble |
| MSLAAGVLPQNEQPYSTLVNNSECVANMKGNLERPTPKYTKVGERLRHVIPGHMACSMACGGRACKYENPARWSEQEQAIKGVYSSWVTDNILAMARPSSELLEKYHIIDQFLSHGIKTIINLQRPGEHASCGNPLEQESGFTYLPEAFMEAGIYFYNFGWKDYGVASLTTILDMVKVMTFALQEGKVAIHCHAGLGRTGVLIACYLVFATRMTADQAIIFVRAKRPNSIQTRGQLLCVREFTQFLTPLRNIFSCCDPKAHAVTLPQYLIRQRHLLHGYEARLLKHVPKIIHLVCKLLLDLAEEGHHHHHH | not soluble |
| MSLAANPWNWFGSSTKVSEQGVGELTASTPLQEQAIADALDGDYRLRSGMKTANGNVVRFFEVMKGDNVAMVINGDQGTISRIDVLDSDIPADTGVKIGTPFSDLYSKAFGNCQKADGDDNRAVECKAEGSQHISYQFSGEWRGPEGLMPSDDTLKNWKVSKIIWRREGHHHHHH | soluble |
| MSLAATGDAGWRIRLREAAVVAGPTVLLGEVADPVGEMPAAVWRDLAARPLWAAPADAGRPMIVNKVRLGEALRAALGATADSCLLPPSMALQRGGAVLREGDLRDIVVRTMTPQLASMGGEASFSDFRLPPFAFLEHPQQKVILEPLQPAPGRLSLRFAVLEMDGAVVRRFTGTAFLDVWLTVPCAAQPLNRGDRLEVEKVTWMRKNIAHLRAAPWDGRGGPWQLQRPVGAGQVVYQDDVAPNPAVTRGGIVTLVYESPALRLAVQGEALADGMPGETIQVRNLQSRKQVYATVRDGSTVVVREGHHHHHH | soluble |
| MSLAETLEKNAIDKSEYPQTAELENRCVNILADLWNAPKDMSYLGTSTVGSSEACMLGGLAMKFRWRNNAEKRGLDIQAKRPNLIISSGYQVCWEKFCVYWDVDMRVVPMDKNHLSLDVDKVFDLVDEYTIGVVGILGITYTGKFDDIQLLDEKVEAYNETNEHQLVIHIDGASGAMFTPFVNPELPWDFRLKNVVSINTSGHKYGLVYPGVGWILWKDKEYLPKELIFEVSYLGGSMPTMAINFSRSASQIIGQYYNFLRYGFEGYREIHEKTKKTAIYLAKTVEKSGYFEIINDGANLPIVCYKMKEGLDVEWTLYDLADQLLMKGWQVPAYPLPADLSDTIIQRFVCRADLGYNVAEEFAADFADAIHNLEHARVLYHDKERNDSYGFTHEGHHHHHH | soluble |
| MSLAEYVYTMSRVSKIVPPKRQILKDISLSFFPGAKIGVLGLNGAGKSTLLRIMAGIDKDIDGEARPQPGLKVGYLPQEPKLDESKTVREVVEEAVADVAYALKRLDEVYAAYAEPDADFDALAKEQGELEALIQAKNGHNLDNALERAADALRLPEWDAQVKYLSGGERRRVAICRLLLENPDMLLLDEPTNHLDAESVAWLERFLVDYAGTVVAITHDRYFLDNAAGWILELDRGEGIPWQGNYTSWLEQKDARLKQEASEGHHHHHH | not soluble |
| MSLAHPPRLNDDKPVIWTVSVTRLFELFRDISLEFDHLANITPIQLGFEKAVTYIRKKLANERCDAIIAAGSNGAYLKSRLSVPVILIKPSGYDVLQELAKAGKLTSSIGVVTYQETIPALVAFQKTFNLRLDQRSYITEEDARGQINELKANGTEAVVGAGLITDLAEEAGMTGIFIYSAATVRQAFSDALDMTRMSLRHNTHDATRNALRTRYVLEGHHHHHH | soluble |
| MSLAKASAESLGGTVASEESIASYIGAGILSSGGNAVDAAVATSLALTVLIPHLGGVGGDFFMLYRSPEGRVFFVNGSGFAPRRLTREEVLGRGLQEIPESGPLSPTTPGYLAGLYHSWRSFGTMEWASLVKPARLLASRGFPLPPSTARSLKLRRECLEADPGSREAVLKTLPREEGSPARLPGLAALLSGVEEDPLYLYQGEPAEALEEYLASIGGVMGAEDLAGTRGFTAEPLYSEYRGWKVWEMPPNTQGVTTLHLLMLLEEEELPEPFSPERVDILAGLARMAYSIRDRYVGDPRYMPIDPHELARKETLLKLLGQEESNGSKATGDTTFFAVADREGGIVAGIQSLFYPWGSCVTEPRFQVTLNNRARGFTLKEGLPSTLRPGAFPLHTLSSVIMEQRERVIALGASGGHLRPQQHALFVTNIVDYGMNVLDAINAPRAVWDPGRGEILCEEGFGCRPSWRKVERIGVANAVEVAGSVKRGYTDMRGDGLPAVEGHHHHHH | not soluble |
| MSLAKAYDHLFKLLLIGDSGVGKTCLIIRFAEDNFNNTYISTIGIDFKIRTVDIEGKKIKLQVWDTAGQERFKTITTAYYRGAMGIILVYDITDEKSFENIQNWMKSIKENASAGVERLLLGNKCDMEAKRKVQKEQADKLAREHGIRFFETSAKSSMNVDEAFSSLARDILLKSGGRRSGNEGHHHHHH | soluble |
